Experimental findings from the supplement of paper PMC12042874 are described below.

± gives the uncertainty stated by the source.

A short description of the data set: amyloid nucleation score (Sup35N fusion, yeast selection) (log enrichment); library NNK2; higher = more nucleation; inactive = no reads after selection. Put shortly:
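Nucleation score: DiMSum log enrichment of output over input reads, centred on the mode score of non-aggregating sequences. Only sequences with at least 100 input reads were kept. Reads came from Illumina sequencing of plasmid inserts before and after 7 days of growth at 30°C without adenine and uracil, in psi-negative yeast expressing Sup35N fused to peptides of 20 random codons after 24 hours of induction with 100 μM copper sulfate.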
The substance MVYGLDFIGASL gave an amyloid nucleation score of -0.016 ± 0.5.

MWQSMLSAVGSVNVMSQLGT yielded an amyloid nucleation score of 1.53 ± 0.33.

On to MWRVWECGGRRDNLVRCPSR, for which the amyloid nucleation score was determined as 0.774 ± 0.51.

In the case of MWWYSFPLGLLWVFNS, the amyloid nucleation score entry was “inactive”.

On to MYCLHCTTSCWSRLRLVNNF, for which the amyloid nucleation score worked out at 2.98 ± 0.16.

With MYIGVL, the amyloid nucleation score is -0.065 ± 0.45.

The substance MYNRSRLSFA registered an amyloid nucleation score of -0.666 ± 1.

Turning to MYSLR, the amyloid nucleation score result is “inactive”.

Consider MYTYLINVNVSDAFTLYGLE, for which the amyloid nucleation score came out at 4.43 ± 0.056.

For the substance MYVDLWFGTYRNS, the amyloid nucleation score amounted to 0.532 ± 0.54.

Consider MYVFMVSFYMGFCKYQNSVI, for which the amyloid nucleation score result was “inactive”.

For the substance NACYRFILISSMVRLSFSVW, the amyloid nucleation score was found to be 0.389 ± 0.8.

NAERSESLYNYKMAGPYGEG yielded an amyloid nucleation score of -0.661 ± 1.1.

In the case of NALGRMCGSWRLVIHISDWW, the amyloid nucleation score was 0.236 ± 0.23.

With NASIQR, the amyloid nucleation score is 0.564 ± 0.36.

As to NATLNNVERFRAFRGTFLDY, the amyloid nucleation score result was “inactive”.

NCEVFNGDALWRSFTGRYLM: the amyloid nucleation score worked out at 0.042 ± 1.1.

NCLLVLHFG: the amyloid nucleation score was 6.91 ± 0.073.

With NCLMLVGNIFWSEESPRLAM, the amyloid nucleation score was determined as 8.041 ± 0.068.

On to NCNFSLEGHYCTFIKFHWTV, for which the amyloid nucleation score stood at 3.23 ± 0.097.

NCRLKLPSP: the amyloid nucleation score turned out to be 3.69 ± 0.05.

On to NCSHGLHLNVFNLVPYKSLI, for which the amyloid nucleation score stood at 4.9 ± 0.096.

NCSLCFENGMAYFCILIEGV showed an amyloid nucleation score of 5.645 ± 0.043.

NDFFIFSQEYPYKRMFLQLL: the amyloid nucleation score is -1.35 ± 0.53.

The substance NDGAIGIVAPGEHLLVRDVK yielded an amyloid nucleation score of -0.573 ± 0.41.

Take NDNKRYIHYPFLMGFTVSYL: the amyloid nucleation score was -0.401 ± 0.6.

NEADE yielded an amyloid nucleation score of -0.119 ± 0.46.

Regarding NEIQANNCGPKILKLYQNMR, the amyloid nucleation score is 0.579 ± 0.8.

Substance NFCSMRSKVTCNSDDKFWNH gave an amyloid nucleation score of -1.13 ± 1.1.

For NFDVNSRWDTRTCFLSWLKQ, the amyloid nucleation score result is “inactive”.

For the substance NFGADVDRFNRVEGSSDFHG, the amyloid nucleation score came to 0.285 ± 0.54.

In turn, NFHLSVRSDSYVL returned an amyloid nucleation score of 3.14 ± 0.12.

NFKYHCRYWFFVFAKFKFHL had an amyloid nucleation score of -1.42 ± 0.75.

As for NFMYRSSMFMHL, the amyloid nucleation score came out at 4.74 ± 0.074.

For NFPMSSFKEEIWLRTRVPLC, the amyloid nucleation score is 0.691 ± 0.66.

On to NGGINNSWWGLIFLNLWPTI, for which the amyloid nucleation score is -0.592 ± 0.79.

Substance NGLESYDFTQLY showed an amyloid nucleation score of -0.667 ± 0.64.

Take NGLSSSTWGPWMYCWCVNMV: the amyloid nucleation score was 8.751 ± 0.057.

On to NGQFGTSHGMVGTGVSLRG, for which the amyloid nucleation score is -0.012 ± 0.65.

For the substance NGSYGSYMHFPEPIMSIFMY, the amyloid nucleation score result is “inactive”.

Turning to NGTFSCGERVIEINDDSLSD, the amyloid nucleation score amounted to 0.486 ± 0.8.

NGTINALFSDEAGWSSCGYL showed an amyloid nucleation score of 0.2 ± 0.34.

As to NGVCQNCR, the amyloid nucleation score entry is “inactive”.

NGVRLNLVNFSFGLDVMPFR came in with an amyloid nucleation score of 7.642 ± 0.071.

NHITMFDRVSYYVKLKHYVA showed an amyloid nucleation score of 0.452 ± 0.37.

NHKAIYLRPSSTNPEILSRA displayed an amyloid nucleation score of 1.15 ± 0.47.

In turn, NHRETVFVVIASRSWHARFG came in with an amyloid nucleation score of -0.19 ± 1.

In the case of NHVCRIVTMFGVPSRSN, the amyloid nucleation score result is “inactive”.

Turning to NIAKSEILRIWNWW, the amyloid nucleation score entry is “inactive”.

NIDICDVWFMNCLYIILVAQ showed an amyloid nucleation score of 5.192 ± 0.031.

With NIDSELSCDYD, the amyloid nucleation score was -0.784 ± 0.76.

In the case of NIFEYPGYRRYVCCVGWV, the amyloid nucleation score is 4.551 ± 0.044.

Regarding NIKSYVGYRNHFRVSLV, the amyloid nucleation score entry is “inactive”.

Turning to NILAMKLFVNKFHVIFDEFL, the amyloid nucleation score stood at 0.097 ± 1.1.

The substance NILTRYS gave an amyloid nucleation score of -0.013 ± 0.31.

NIRQVIKGVSCLHIMWEKWR displayed an amyloid nucleation score of -0.304 ± 0.48.

Regarding NIRSYPVNYKHHFT, the amyloid nucleation score is 0.19 ± 0.27.

As to NIRVNDCVRHPSGDVQARVS, the amyloid nucleation score was -0.014 ± 0.35.

The substance NITLYFKRSLDLFGEPMWTQ displayed an amyloid nucleation score of 1.53 ± 0.16.

The substance NIVKGFRCLCVNLTDFRETR yielded an amyloid nucleation score of 4.09 ± 0.12.

With NKCEIKLRKWQSSP, the amyloid nucleation score was -0.337 ± 0.34.

As to NKDRGGRYSICRNYANPFVA, the amyloid nucleation score stood at 0.034 ± 0.29.

In the case of NKLTV, the amyloid nucleation score was -0.381 ± 0.79.

Turning to NKRELNIVV, the amyloid nucleation score came to 0.701 ± 0.43.

As for NKSVQARDPTV, the amyloid nucleation score entry was “inactive”.

Substance NKVSEFYDGVHFC had an amyloid nucleation score of -0.235 ± 1.1.

In turn, NLAFTNALVLLWNSVYLKDE gave an amyloid nucleation score of 8.274 ± 0.058.

Take NLASRALIKLFH: the amyloid nucleation score was -0.538 ± 0.48.

NLCRQVACTLLSLPSDTPRF returned an amyloid nucleation score of 8.842 ± 0.03.

For the substance NLGDVSYTSSFG, the amyloid nucleation score came to 1.31 ± 0.43.

In the case of NLKIMLIRTIVYHDWSTMHL, the amyloid nucleation score was determined as 7.161 ± 0.061.

NLMGFCYVSAEWVFGGRPGY came in with an amyloid nucleation score of 1.97 ± 0.14.

As to NLQLTFGS, the amyloid nucleation score is -0.202 ± 0.21.

Regarding NLRMVG, the amyloid nucleation score worked out at 0.182 ± 1.1.

Substance NLRSYIRGSLFGFCSRLWEN displayed an amyloid nucleation score of 3.09 ± 0.08.

The substance NLSCNLFVSFWYGW came in with an amyloid nucleation score of 4.67 ± 0.068.

NLSRRCKIADWSIHCATIHE yielded an amyloid nucleation score of -0.235 ± 1.1.

With NLWFSHDITYHYTYFDRSRA, the amyloid nucleation score is 4.52 ± 0.087.

Substance NLWVCFWSDSCFT came in with an amyloid nucleation score of 8.089 ± 0.045.

With NLYSLPQEDRSLNDEKGG, the amyloid nucleation score stood at 0.121 ± 0.49.

As to NLYTYAVKAVSYSMTGVFIS, the amyloid nucleation score was -0.114 ± 1.

In the case of NMFRIVASTY, the amyloid nucleation score came out at 0.598 ± 0.47.

NMNLVILDTHN showed an amyloid nucleation score of 2.86 ± 0.13.

In turn, NMRHI yielded an amyloid nucleation score of 0.75 ± 0.41.

For NMRRYLIDMKGVEVLGFMCS, the amyloid nucleation score result was “inactive”.

Consider NMYLDVRRSDGICGHIY, for which the amyloid nucleation score was -1.28 ± 1.

In turn, NNATLGQAFSRQ registered an amyloid nucleation score of 0.542 ± 0.17.

The substance NNGPSKT gave an amyloid nucleation score of 0.51 ± 0.54.

On to NNKFLQVSYS, for which the amyloid nucleation score is -0.409 ± 0.78.

As for NNLGKEWKNIWGECLRRVAP, the amyloid nucleation score was determined as 4.48 ± 0.079.

For NNLTKWLNHWRYFRFSSALE, the amyloid nucleation score is -0.178 ± 0.5.

For NNMPFCNYEAFNFYNGMSAF, the amyloid nucleation score is -1.55 ± 1.1.

As to NNRHLSPVVRSY, the amyloid nucleation score result is “inactive”.

The substance NNRSGYEYVIEFRLTSAVHF had an amyloid nucleation score of 2.1 ± 0.13.

NNSMLLSDTLLGYRRTGLDC returned an amyloid nucleation score of -0.176 ± 0.3.

As to NNTNIECSWWIYVWSRHNNR, the amyloid nucleation score came out at 5.99 ± 0.061.

Substance NNWYNTYYKSIKASQPRSSR yielded an amyloid nucleation score of -0.797 ± 1.1.

The substance NPLYEGSFFWGWKFIDFRQH had an amyloid nucleation score of 0.131 ± 1.

Take NPSCTRKVLVYSY: the amyloid nucleation score was found to be 0.359 ± 0.43.

NPVRISL: the amyloid nucleation score was determined as 0.214 ± 0.28.

NPYKLTLPLTSLLLYSIPRA showed an amyloid nucleation score of -0.127 ± 1.1.

For NPYTCMKTHYNRRNI, the amyloid nucleation score came to 3.41 ± 0.15.

As for NQLDTNSIMLVFLSNMMLGV, the amyloid nucleation score came out at 3.81 ± 0.056.

In turn, NQNCLHTTCVCSRIVSDAAV displayed an amyloid nucleation score of 6.483 ± 0.038.

Regarding NQSESFHGLDHFTRNHGGCR, the amyloid nucleation score entry is “inactive”.

Turning to NQTGSRYRVFGNFHVTACFV, the amyloid nucleation score was found to be 0.838 ± 0.18.

Substance NQYLSMRTAHSGEVYQPLVF gave an amyloid nucleation score of 0.859 ± 0.8.

In turn, NRDVVKKLPGPSSFVMT came in with an amyloid nucleation score of -0.552 ± 0.44.

As for NRFMN, the amyloid nucleation score is -0.3 ± 0.46.

The substance NRFYIWRSDRNYTLVACRSK displayed an amyloid nucleation score of -0.237 ± 0.79.

NRGSGSAGMVSLLNNSWRWA showed an amyloid nucleation score of 1.48 ± 0.43.

For NRGWSFKLQWHYSLSYTS, the amyloid nucleation score came to 4 ± 0.084.

Substance NRKEQVVPLHVRSPI gave an amyloid nucleation score of 1.13 ± 0.17.

Substance NRLERMLLTDTDVSEKGSLG showed an amyloid nucleation score of -0.204 ± 0.54.

Turning to NRLYSNRGQLNSLCISWFSG, the amyloid nucleation score result was “inactive”.

Substance NRRLRHIWRNNSLTSKN showed an amyloid nucleation score of -0.279 ± 0.25.

NRVVHFISIFGFMNS returned an amyloid nucleation score of 3.6 ± 0.098.

In turn, NSAIVLHTSYIHFVFYSVFY showed an amyloid nucleation score of -0.403 ± 0.63.

In turn, NSCSWDSIITLVVQWLARQH had an amyloid nucleation score of 6.342 ± 0.039.

In the case of NSFRISGLVDLVNNLSGYLS, the amyloid nucleation score was -1.34 ± 0.61.

With NSIAYPACLNKWGWIKFSSY, the amyloid nucleation score was -1.41 ± 0.29.

As for NSIVWGIHGFVLTLVFFTCF, the amyloid nucleation score is -0.849 ± 1.

Substance NSLHSDSVLIKERDADKSTR showed an amyloid nucleation score of 1.73 ± 0.14.

Consider NSLVYCKKPSLPFHHGCK, for which the amyloid nucleation score was -0.032 ± 0.42.

As to NSLYRGRRHRAYDINVSFVK, the amyloid nucleation score is -0.392 ± 0.48.

Substance NSRQYSVMIVQLIPCCQLIP had an amyloid nucleation score of 0.033 ± 0.6.

Turning to NSRTGTLREVHYLPDST, the amyloid nucleation score came to 5.1 ± 0.054.

Regarding NSSSYVDFGTICMDSIWMS, the amyloid nucleation score turned out to be 0.041 ± 0.53.

For the substance NSWFLYRCKFVLRHSYVN, the amyloid nucleation score result is “inactive”.

For NSYSGAVLT, the amyloid nucleation score is -0.464 ± 1.1.

Consider NTANKFSLFKTGMVWVSFFT, for which the amyloid nucleation score turned out to be 2.88 ± 0.099.

NTEEDDKRVRMGELVVEYSN: the amyloid nucleation score stood at 1.36 ± 0.17.

NTGFTLMGCWPMYYCWSFSW had an amyloid nucleation score of -0.073 ± 1.

For the substance NTLDSGPNGGWLISTY, the amyloid nucleation score entry is “inactive”.

Take NTLTTFVIGGCCLRFEASYM: the amyloid nucleation score worked out at 10.52 ± 0.077.

With NTLVSVYEYFSMWGRSCRWS, the amyloid nucleation score is 0.141 ± 0.61.

NTRNDWQS showed an amyloid nucleation score of 2.13 ± 0.15.

The substance NTSMNCRKVMYDMNIYNLSK registered an amyloid nucleation score of 3.49 ± 0.11.

NTSQDG came in with an amyloid nucleation score of 5.15 ± 0.087.
